In experiment [1] the target is T1, human VEGF (human, UniProt P15692-4 27-191).
T1 construct: Immobilised on a CM5 chip for Biacore; the same name is used for the rhVEGF of the HUVEC assay; also called hVEGF; rhVEGF
The experiment in a line: SPR (Biacore), VEGF surface.

Experiment [2] deals with T1, human VEGF. The experiment is described as follows: SPR (Biacore), VEGF surface; reference 219R0302 IgG. Background: Surface plasmon resonance follows binding to a sensor surface in real time, without labels.
Experiment [3] has as its target T1, human VEGF. The experiment in a line: Biacore dual targeting assay, high density VEGF surface, antibody first, then DLL4-Fc.
Experiment [4] has as its target T2, full length human DLL4 on transfected human 293 HEK cells (human, UniProt Q9NR61 27-685).
T2 construct: whole, on cells; also called hDLL4 transfected cells; human DLL4 transfected cells
The experiment is described as follows: flow cytometry on human 293 HEK cells transfected with full length human DLL4 and GFP; goat anti-human IgG H/L-PE. On the technique in general: A flow cytometer gives signals particle by particle.

T1 sequence (P15692 other isoform, or with tags, fused parts or gaps limits assumed): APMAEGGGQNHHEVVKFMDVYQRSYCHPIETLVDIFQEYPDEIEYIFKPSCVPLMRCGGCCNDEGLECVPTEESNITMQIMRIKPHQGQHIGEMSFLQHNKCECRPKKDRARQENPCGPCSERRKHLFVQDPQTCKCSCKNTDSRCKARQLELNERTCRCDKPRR

B1: 219R0302-21M18 single gene bispecific antibody (SGBSP) (bispecific antibody, human IgG2, kappa)
chain 1: not shown
chain 2: DIVMTQSPDSLAVSLGERATISCRASESVDNYGISFMKWFQQKPGQPPKLLIYAASNQGSGVPDRFSGSGSGTDFTLTISSLQAEDVAVYYCQQSKEVPWTFGGGTKVEIKRTVAAPSVFIFPPSDEQLKSGTASVVCLLNNFYPREAKVQWKVDNALQSGNSQESVTEQDSKDSTYSLSSTLTLSKADYEKHKVYACEVTHQGLSSPVTKSFNRGECGGGGSGGGGSGGGGSGGGGSGGGGSGGGGSQVQLVQSGAEVKKPGASVKISCKASGYSFTAYYIHWVKQAPGQGLEWIGYISSYNGATNYNQKFKGRVTFTTDTSTSTAYMELRSLRSDDTAVYYCARDYDYDVGMDYWGQGTLVTVSSASTKGPSVFPLAPCSRSTSESTAALGCLVKDYFPEPVTVSWNSGALTSGVHTFPAVLQSSGLYSLSSVVTVPSSNFGTQTYTCNVDHKPSNTKVDKTVERKCCVECPPCPAPPVAGPSVFLFPPKPKDTLMISRTPEVTCVVVDVSHEDPEVQFNWYVDGVEVHNAKTKPREEQFNSTFRVVSVLTVVHQDWLNGKEYKCKVSNKGLPAPIEKTISKTKGQPREPQVYTLPPSREEMTKNQVSLTCLVEGFYPSDIAVEWESNGQPENNYKTTPPMLDSDGSFFLYSELTVDKSRWQQGNVFSCSVMHEALHNHYTQKSLSLSPGK
notes: Heterodimer of two single-gene chains, anti-VEGF arm (13A) and anti-DLL4 arm (13B), IgG2; also called 219R0302_21M18 SGBSP; 219R0302-21M18 SGBSP
B1: the Kd (in general, the free concentration of one partner at which half of the binding sites on the other are occupied at equilibrium, for simple one-to-one binding) in experiment [1] is 7.6 nM. Further, the “fold weaker binding affinity than 219R0302” value in experiment [2] was approximately 4 fold.

B2: Homo 13A (219R02) (antibody, human IgG2, kappa, V domains shown)
VH: QVQLKQSGAELVKPGASVKLSCKASGYTFTNYWMHWVKLRPGQGFEWIGDINPSNGGTSYNEKFKRKATLTVDKSSSTAYMQLSSLTSEDSAVYYCTIHYYDNSYAMDYWGQGTSVTVSS
VL: DIVMTQSPDSLAVSLGERATISCRASESVDNYGISFMKWFQQKPGQPPKLLIYAASNQGSGVPDRFSGSGSGTDFTLTISSLQAEDVAVYYCQQSKEVPWTFGGGTKVEIKR
notes: also called 219R02 13A Homo; 219R0202 HC (with 13A mutation) expressed only with 21M18 LC
As for B2, the binding result in experiment [3] was “binds”; in experiment [4], “no binding (tested: log(nM) about 1.8 (about 60 nM))”.

The values are drawn from patent US20110123532A1 (ONCOMED PHARMACEUTICALS, published 2011).
